Target: GST-fused PINCH-1 LIM5 domain (residues 249-325) (human), P48059
Experiment: BLI; BLItz; GST-fused PINCH protein or GST (0.05 mg/ml) loaded on anti-GST biosensor, Rsu-1 WT or mutant in the mobile phase; 20 mM Tris pH 7.5, 150 mM NaCl, 1 mg/ml BSA, 0.05% Tween-20; 1:1 global fit; at least three measurements
Conditions: remark: other sources report otherwise

Sequence of GST-fused PINCH-1 LIM5 domain (residues 249-325) (human), P48059 (P48059 249-325): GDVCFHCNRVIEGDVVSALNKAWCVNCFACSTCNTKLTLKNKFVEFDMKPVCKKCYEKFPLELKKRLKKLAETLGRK

B1: Rsu-1 triple mutant R2W (Phe71Arg, Arg165Trp, Asp166Arg), Q15404 1-277 (natural protein)
chain: MSKSLKKLVEESREKNQPEVDMSDRGISNMLDVNGLFTLSHITQLVLSHNKLTMVPPNIAELKNLEVLNFRNNQIEELPTQISSLQKLKHLNLGMNRLNTLPRGFGSLPALEVLDLTYNNLSENSLPGNFFYLTTLRALYLSDNDFEILPPDIGKLTKLQILSLWRNDLISLPKEIGELTQLKELHIQGNRLTVLPPELGNLDLTGQKQVFKAENNPWVTPIADQFQLGVSHVFEYIRSETYKYLYGRHMQANPEPPKKNNDKSKKISRKPLAAKNR
Kd: 33.3 µM

— paper PMC8141872
